Starred links: 1 amine or outer side, 2 acyl side, 3 side chain; linkers in the order of their positions; H or OH if unused. Positions of bridges follow the written chain, without caps; N, C: chain ends. Non-standard residues stand in square brackets, D forms with d. Primed or numbered codes have the meaning given here. B5(4) = 2,2-bis(4-pentenyl)glycine = 2-amino-2-(pent-4-en-1-yl)hept-6-enoic acid (stitching residue), C=CCCCC(CCCC=C)(N[*:1])C(=O)[*:2]; Phe(3,5-F2) = N[C@@H](Cc1cc(F)cc(F)c1)C(=O)O; S7 = C[C@@](CCCCCC=[*:3])(N[*:1])C(=O)[*:2]; Phe(3-F) = N[C@@H](Cc1cccc(F)c1)C(=O)O; αAllylPro = C=CC[C@@]1(C(=O)O)CCCN1; S8 = C=CCCCCCC[C@](C)(N)C(=O)O
T1: full-length beta-Catenin (Uniprot ID P35222) (Homo sapiens (Human), UniProt P35222 2-781)
T1 construct: also called B-Catenin; bCat
T1 sequence: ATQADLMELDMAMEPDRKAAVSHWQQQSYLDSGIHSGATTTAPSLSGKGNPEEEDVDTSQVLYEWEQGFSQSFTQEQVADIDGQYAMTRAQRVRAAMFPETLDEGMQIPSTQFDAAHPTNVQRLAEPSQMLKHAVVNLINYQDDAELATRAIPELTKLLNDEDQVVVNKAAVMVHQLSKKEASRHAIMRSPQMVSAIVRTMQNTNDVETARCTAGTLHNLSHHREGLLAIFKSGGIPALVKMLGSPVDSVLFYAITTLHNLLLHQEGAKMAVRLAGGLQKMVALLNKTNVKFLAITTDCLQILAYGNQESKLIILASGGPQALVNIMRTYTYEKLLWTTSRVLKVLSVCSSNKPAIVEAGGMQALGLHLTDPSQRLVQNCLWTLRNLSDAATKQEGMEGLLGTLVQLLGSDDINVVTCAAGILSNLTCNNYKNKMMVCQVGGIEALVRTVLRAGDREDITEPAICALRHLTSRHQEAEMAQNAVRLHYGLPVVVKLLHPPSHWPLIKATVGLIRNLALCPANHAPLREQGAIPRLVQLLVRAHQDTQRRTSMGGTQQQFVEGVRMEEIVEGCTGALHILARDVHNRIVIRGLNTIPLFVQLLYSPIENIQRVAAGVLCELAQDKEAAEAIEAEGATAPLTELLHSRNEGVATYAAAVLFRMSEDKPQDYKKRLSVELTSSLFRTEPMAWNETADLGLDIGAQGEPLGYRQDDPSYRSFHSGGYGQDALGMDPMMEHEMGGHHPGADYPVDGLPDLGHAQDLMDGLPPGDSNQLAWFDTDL

T2: beta-Catenin (full-length, Uniprot ID P35222) (Homo sapiens (Human), UniProt P35222 1-781)
T2 construct: also called bCat; B-Catenin
T2 sequence: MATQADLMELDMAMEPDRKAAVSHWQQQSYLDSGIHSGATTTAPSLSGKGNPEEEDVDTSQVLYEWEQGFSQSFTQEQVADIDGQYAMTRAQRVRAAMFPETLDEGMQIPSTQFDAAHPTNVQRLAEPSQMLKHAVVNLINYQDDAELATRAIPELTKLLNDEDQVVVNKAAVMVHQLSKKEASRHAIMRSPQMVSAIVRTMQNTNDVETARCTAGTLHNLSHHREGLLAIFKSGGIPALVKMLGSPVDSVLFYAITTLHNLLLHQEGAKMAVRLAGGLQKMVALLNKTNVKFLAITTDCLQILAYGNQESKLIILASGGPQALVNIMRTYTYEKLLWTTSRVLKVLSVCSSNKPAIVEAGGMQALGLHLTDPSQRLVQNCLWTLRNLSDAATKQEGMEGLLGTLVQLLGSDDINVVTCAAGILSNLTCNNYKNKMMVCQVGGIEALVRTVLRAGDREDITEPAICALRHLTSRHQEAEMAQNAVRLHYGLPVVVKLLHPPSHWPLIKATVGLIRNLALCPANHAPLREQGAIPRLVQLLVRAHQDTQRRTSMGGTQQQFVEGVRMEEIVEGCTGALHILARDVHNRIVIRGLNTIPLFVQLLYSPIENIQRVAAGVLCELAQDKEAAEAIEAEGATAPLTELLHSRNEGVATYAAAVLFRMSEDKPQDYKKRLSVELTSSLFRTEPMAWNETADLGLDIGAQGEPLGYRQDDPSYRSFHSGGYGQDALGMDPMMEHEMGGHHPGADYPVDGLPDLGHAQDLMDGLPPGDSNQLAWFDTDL

T3: full-length beta-Catenin (Uniprot ID P35222) (Homo sapiens (Human), UniProt P35222 2-781)
T3 construct: The AlphaScreen assay used a Histidine (Nickel Chelate) detection kit, so a His tag is likely, but no tag is described; also called B-Catenin; bCat
T3 sequence: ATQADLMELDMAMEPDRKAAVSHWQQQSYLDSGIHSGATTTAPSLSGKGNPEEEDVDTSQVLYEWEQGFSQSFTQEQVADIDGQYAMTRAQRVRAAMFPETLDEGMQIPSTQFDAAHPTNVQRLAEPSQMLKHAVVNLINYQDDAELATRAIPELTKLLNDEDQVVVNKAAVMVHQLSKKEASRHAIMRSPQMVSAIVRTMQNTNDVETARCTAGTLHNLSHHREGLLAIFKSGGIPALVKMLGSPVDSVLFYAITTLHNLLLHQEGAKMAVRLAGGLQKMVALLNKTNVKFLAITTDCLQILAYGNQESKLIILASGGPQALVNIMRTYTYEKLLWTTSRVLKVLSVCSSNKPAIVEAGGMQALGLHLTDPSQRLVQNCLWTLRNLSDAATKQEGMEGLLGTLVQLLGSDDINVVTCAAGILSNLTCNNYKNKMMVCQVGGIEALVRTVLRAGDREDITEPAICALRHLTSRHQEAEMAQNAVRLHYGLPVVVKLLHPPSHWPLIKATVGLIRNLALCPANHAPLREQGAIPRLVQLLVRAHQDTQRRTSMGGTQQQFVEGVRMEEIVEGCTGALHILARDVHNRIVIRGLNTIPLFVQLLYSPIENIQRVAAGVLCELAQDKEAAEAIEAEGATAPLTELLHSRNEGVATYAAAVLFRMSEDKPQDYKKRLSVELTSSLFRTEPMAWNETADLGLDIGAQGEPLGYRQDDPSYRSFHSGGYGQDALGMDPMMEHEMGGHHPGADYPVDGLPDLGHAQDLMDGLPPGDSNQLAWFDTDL


Columns and labels:
[1] = target: T1, full-length beta-Catenin (Uniprot ID …); assay: fluorescence polarization competition; 5FAM-TCF4(10-53) probe with full-length beta-catenin
Experimental: (§1) The plate was incubated protected from light for 60 minutes at 20° C. prior to read. Reads were performed on a CLARIOstar plate reader (BMG Labtech) in duplicate, and data were fitted to a 1:1 binding model with hill slope using an in-house script. All provided concentrations are final concentrations.

[2] = target: T1, full-length beta-Catenin (Uniprot ID …); assay: Alphascreen competition; biotin-TCF4(10-53) probe with full-length beta-catenin
Experimental: as §1, with “Equal volume of the titrated peptide was added to the” for “The”, “and” for “was”, “incubated for 15 minutes at 20° C. Then 4 uL of donor and 4 uL acceptor beads at 10 ug/mL were added to the plate, for a 16 uL reaction pool and” for “incubated”

[3] = target: T2, beta-Catenin (full-length, Uniprot ID …); assay: fluorescence polarization competition: peptide titrated against 10 nM full-length beta-catenin + 10 nM 5FAM-labeled TCF4 residues 10-53 probe
Experimental: as §1

[4] = target: T3, full-length beta-Catenin (Uniprot ID …); assay: fluorescence polarization competition: full-length beta-catenin + 5FAM-TCF4(10-53) probe, peptide titrated
Experimental: as §1

[5] = target: T3, full-length beta-Catenin (Uniprot ID …); assay: AlphaScreen competition: full-length beta-catenin + biotin-TCF4(10-53) probe, peptide titrated
Experimental: as §1, with “Equal volume of the titrated peptide was added to the” for “The”, “and” for “was”, “incubated for 15 minutes at 20° C. Then 4 uL of donor and 4 uL acceptor beads at 10 ug/mL were added to the plate, for a 16 uL reaction pool and” for “incubated”

| EC50 [1] [µM] | EC50 [2] [µM] | Binder | other results |
| --- | --- | --- | --- |
| 5 | 5.09 | Ac-[αAllylPro]DA[B5(4)]DEAAFV[S7]FWQ-NH2 (staple 1-4, 4-11, Stitched (two-staple) peptide composition) [I-132] |  |
|  |  | Ac-[αAllylPro]DA[B5(4)]DEAA[Phe(3,5-F2)]V[S8]FWQ-NH2 (staple 1-4, 4-11, Stapled (stitched) peptide) [I-219: Ac-PL3-Asp-Ala-B5-Asp-Glu-Ala-Ala-35FF-Val-S8-Phe-Trp-Gln-NH2] | IC50 [3]: 2.85 µM |
|  |  | Ac-[αAllylPro]DA[B5(4)]DDAA[Phe(3-F)]V[S8]FWQ-NH2 (staple 1-4, 4-11; not fully specified; printed as Ac-PL3-Asp-Ala-B5-Asp-Asp-Ala-Ala-3FF-Val-S8-Phe-Trp-Gln-NH2, It is the earlier-eluting isomer composition) [I-264: Ac-PL3-Asp-Ala-B5-Asp-Asp-Ala-Ala-3FF-Val-S8-Phe-Trp-Gln-NH2] | IC50 [3]: 5 µM |
|  |  | Ac-[αAllylPro]DA[B5(4)]DEAA[Phe(3,5-F2)]V[S8]FWQ-NH2 (staple 1-4, 4-11, Stapled peptide composition; also called Ac-PL3-Asp-Ala-B5-Asp-Glu-Ala-Ala-35FF-Val-S8-Phe-Trp-Gln-NH2) [I-219] | EC50 [4]: 2.85 µM; EC50 [5]: 0.131 µM |
|  |  | Ac-[αAllylPro]DA[B5(4)]DEAA[Phe(3,5-F2)]V[S8]FWQ-NH2 (staple 1-4, 4-11, Stapled peptide composition; also called Ac-PL3-Asp-Ala-B5-Asp-Glu-Ala-Ala-35FF-Val-S8-Phe-Trp-Gln-NH2) [I-220] | EC50 [4]: 2.85 µM; EC50 [5]: 0.131 µM |
| 2.11 | 0.444 | Ac-[αAllylPro]DA[B5(4)]DEAAFV[S8]FWQ-NH2 (staple 1-4, 4-11, Stitched (two-staple) peptide composition) [I-123] |  |
| 3.06 | 0.569 | XDAXDNAAFVXFWQ (not fully specified; as printed: Ac-PL3-Asp-Ala-B5-Asp-Asn-Ala-Ala-Phe-Val-S8-Phe-Trp-Gln-NH2; staples PL3(1)-B5(4) and B5(4)-S8(11), Stitched (two-staple) peptide composition) [I-125] |  |
